Assay results published in ChEMBL document CHEMBL3352481, “Synthesis of {[5-(adenin-9-yl)-2-furyl]methoxy}methyl phosphonic acid and evaluations against human adenylate kinases” (Bioorg Med Chem Lett, 2014).

Assays:
Settings in all cases: Homo sapiens; call rule not given here
[1] = substrate: Nc1ncnc2c1ncn2[C@@H]1O[C@H](COP(=O)(O)O)[C@@H](O)[C@H]1O; assay: (§1) Activity of recombinant AK1 (unknown origin) assessed as ADP formation by spectroscopic pyruvate kinase/lactate dehydrogenase coupled assay
[2] = substrate: C[C@H](Cn1cnc2c(N)ncnc21)OCP(=O)(O)O; assay: as §1
[3] = substrate: Nc1ncnc2c1ncn2-c1ccc(COCP(=O)(O)O)o1; assay: as §1
[4] = substrate: Nc1ncnc2c1ncn2-c1ccc(CO)o1; assay: as §1
[5] = substrate: Nc1ncnc2c1ncn2[C@H]1C[C@H](O)[C@@H](COP(=O)(O)O)O1; assay: as §1
[6] = substrate: Nc1ncnc2c1ncn2CCOCP(=O)(O)O; assay: as §1
[7] = substrate: Nc1ncnc2c1ncn2[C@@H]1O[C@H](COP(=O)(O)O)[C@@H](O)[C@H]1O; assay: (§2) Ratio of Kcat to Km for recombinant AK1 (unknown origin)
[8] = substrate: C[C@H](Cn1cnc2c(N)ncnc21)OCP(=O)(O)O; assay: as §2
[9] = substrate: Nc1ncnc2c1ncn2-c1ccc(COCP(=O)(O)O)o1; assay: as §2
[10] = substrate: Nc1ncnc2c1ncn2-c1ccc(CO)o1; assay: as §2
[11] = substrate: Nc1ncnc2c1ncn2[C@H]1C[C@H](O)[C@@H](COP(=O)(O)O)O1; assay: as §2
[12] = substrate: Nc1ncnc2c1ncn2CCOCP(=O)(O)O; assay: as §2

B1: Adenylate kinase isoenzyme 1 (Homo sapiens), P00568 (protein)
chain: MEEKLKKTKIIFVVGGPGSGKGTQCEKIVQKYGYTHLSTGDLLRSEVSSGSARGKKLSEIMEKGQLVPLETVLDMLRDAMVAKVNTSKGFLIDGYPREVQQGEEFERRIGQPTLLLYVDAGPETMTQRLLKRGETSGRVDDNEETIKKRLETYYKATEPVIAFYEKRGIVRKVNAEGSVDSVFSQVCTHLDALK
- Km [1]: 175 µM
- kcat [1]: 500 s⁻¹
- Km [2]: 3000 µM
- kcat [2]: 0.22 s⁻¹
- Km [3]: Not Active
- kcat [3]: Not Active
- Km [4]: Not Active
- kcat [4]: Not Active
- Km [5]: 1500 µM
- kcat [5]: 240 s⁻¹
- Km [6]: 6000 µM
- kcat [6]: 0.08 s⁻¹
- kcat/Km [7]: 2.85 ×10⁶ /M/s
- kcat/Km [8]: 75 M⁻¹ s⁻¹
- kcat/Km [9]: Not Active
- kcat/Km [10]: Not Active
- kcat/Km [11]: 0.16 ×10⁶ /M/s
- kcat/Km [12]: 14 ×10⁶ /M/s
